According to patent US20260069679A1:
Where two headings read alike, the source gives them in different places.

Assays:
SS[change] = assay: BLI, 1:1 fit
SS-L2-Aferr = assay: BLI, 1:1 fit
[1] = target: MERS SS antigen (MERS-CoV EMC/2012) (UniProt K9N5Q8); assay: BLI, 1:1 fit
[2] = target: MERS [change]\u0394RBD antigen (MERS-CoV EMC/2012); assay: BLI, 1:1 fit
[3] = target: MERS SS antigen (MERS-CoV EMC/2012) (UniProt K9N5Q8)
[4] = target: MERS SS antigen (MERS-CoV EMC/2012) (UniProt K9N5Q8); remark: listed apart in the source

CC40.8 (antibody)
Kd (SS[change]): 1690 pM | kon (SS[change]): 205000 M⁻¹ s⁻¹ | Kd (SS-L2-Aferr): 312 pM | kon (SS-L2-Aferr): 229000 M⁻¹ s⁻¹

G4 (antibody)
Kd [1]: 8.1 pM | kon [1]: 52200 M⁻¹ s⁻¹ | Kd (SS[change]): 2.79 pM | kon (SS[change]): 175000 M⁻¹ s⁻¹ | Kd [2]: 6.71 pM | kon [2]: 67400 M⁻¹ s⁻¹ | Kd (SS-L2-Aferr): 2.38 pM | kon (SS-L2-Aferr): 205000 M⁻¹ s⁻¹ | Kd [3]: 550 pM | maximum binding [4]: 0.43 nm
